According to the DeepSol protein solubility set:

Test: soluble on expression in E. coli; label from the status in PepcDB or PDB records

| Sequence | soluble on expression in E. coli |
| --- | --- |
| SDYFRSCWGPRSPAGHRVRGSDVAGRQDGLLWYKDAGQLVTGEFSMAVVQANNLLEDQSQVESGALSMAEPGPQGTFIGVYDGHGGPETARFINDHMFHHLRRFATEHKCMSTDVIRKAFQATEEGFLSLVSKQWSLKPQIAAVGSCCLVGVICSGTLYVANLGDSRAVLGRFVKSTGEVVATQLSSEHNACYEEVRQELQASHPDDPQIVVLKHNVWRVKGLIQISRSIGDVYLKRPEYNREPLHSKFRLRETFKRPILSSEPAIAVHQIQPNDHFVIFASDGLWEHLSNQEAVDLVQNNPRNGIARRLVKVAMQEAAKKREMRYSDLKKIDRGVRRHFHDDITVIVVFLDSNAISKANWSRGPSVSLRGGGVTLPANSLAPFSTPTVLSSTY | soluble |
| EVVVVGYQEVRRRDLTGSVAKANMADVLTAPVASFDQALGGRIAGVNVTSGEGMPGGNMSIVIRGNNSLTQENSPLFVIDGFPIEDSSAASTLNPSDIESLDFLKDASATAIYGARGANGVVIITTKKGK | not soluble |
| MGSDKIHHHHHHVPMGKLIASLVDIVKKNKFVDDTQKALFDNFENTKRVNVYIDDLDRGWEGRKEDIRRISALLNAVRDISNEMDNVHFMISLRSDVYYLVRTSDESTDKISGSVIWYTWDRHQILALLAKRVETFFGRDISENSLMGMHQSKIAQYLDPIMTQHFEGKGKWENAPIYRILMSLIRNRPRDLVMICTLAARNARKKGRSKILTEDLQSIFEDYSLERIQDIENEFKSELPEIRRLLFALKPSAKKSSKFSDLYVYTTDQVEAKIQSASANAPFYFSNNNKQATSEELHYFLYKINFLTARRKNKDDVLVRKTFEENKYLTGRFVDFGFGWEVHPAYRWALEPDDSESIYARLDLLDFE | not soluble |
| MAHHHHHHMRSISTGSGANLQKPSWIAQLCSDAQKSEKTISCDVKVYDELSWRRRRFSFDKELWDPARMSSIVRRRLCLGNEEAEYTVIGEAFAFADREDSPVVNEPQHSCKLLWDHNSSVEKLLIQISDHFPPLLWYAVKPTLESLKRIFSEFLDVDAEHMKKNLPYYESVQNAMETSTQERLGVTLSPTSVKDRFVADMRRRDPKDLELDYPCEYSVFLGTSPHFRLVEDRMMKSNPFVFGWPLLLSDGNEHLDGTPLRMAAFRTVYSKSLLMFHTRLDLQVDHRLASSEAGEETLLDVPIFCNINYPKNTRLCGGKPLVQRFNTVMGTTYPLDTPVDILAALAKEQCVKGPNELLEELRFLTAAAERAPDEERVFRISDDQLSANRIVGQLAYTIIYVALVNYDRFIKDVFDVYKTHRSDMVRVACARGASIVGRPDLIEQLISAEREGPCKNMLRGVVTTP | not soluble |
| MGSDKIHHHHHHVALAIPQIHAHEHSDEQLMQRYAQGDSQAFEQLYLKHKGALYRYFVRQLGDKQLAEDLYQETWGRVIRAAVNYQVSAKFSTWLYRIAHNLLIDHVRAVKPVDFIASDTDVTGLDTFEGCDQDKPDIHWQEAQKSLLLKTCISLLPQVQKEAFILNIEMGFTAAMISDIAGVTLEATKSRIRYAYQSLKECVNAKWQEAGHE | not soluble |
| MESNDSGGVAAKHGFLFQDCVAAYHVTRMLRDKTIRSVRCEVTDDIDIVSDGYIDFVQVKSTGKTRWNISDIVQNSKGADKKTIPCSSILHKSMQCESDLSLGRRYSIVTEEKVNKTLEYLTISPNARLDKPGRQELIDDLNKRTDNFLTDSGISVSDWIDAATWEVFSSLRELELLGIKNIRLASQDLHGVILSSETVAEDIWCRILDTVTRKGEHSRRIHSADDKSYLRPDLLEWFKQRVEDDQSRSGRKIYVKRDLPHILTPFRAPMASVCAKRKGQVLHQQYSLKKYRYKHIADNVCQWLDEVFLRPKEMSDIHKLTFIEKRERLKNSVFKSLHDVSEFLGRVLLHATIRQHHESQPIPCMLYVEKAGAEKILENVHIVRRDPEGDQLWIGFSELVTDINIAVRLPEIRDQLYEDISDCIDTARKKILDIKDDNYLLRHDIDEILDGSQPFDAHLDRFTFVLFVGYDSNLLTEPETPGFEDDLEKETAVLFEKFAADLIEDSPFANLCIHVFIYPAPSLERLTQLVDEKVREVV | soluble |
| MVHYYRLSLKSRQKAPKIVNSKYNSILNIALKNFRLCKKHKTKKPVQILALLQEIIPKSYFGTTTNLKRFYKVVEKILTQSSFECIHLSVLHKCYDYDAIPWLQNVEPNLRPKLLLKHNLFLLDNIVKPIIAFYYKPIKTLNGHEIKFIRKEEYISFESKVFHKLKKMKYLVEVQDEVKPRGVLNIIPKQDNFRAIVSIFPDSARKPFFKLLTSKIYKVLEEKYKTSGSLYTCWSEFTQKTQGQIYGIKVDIRDAYGNVKIPVLCKLIQSIPTHLLDSEKKNFIVDHISNQFVAFRRKIYKWNHGLLQGDPLSGCLCELYMAFMDRLYFSNLDKDAFIHRTVDDYFFCSPHPHKVYDFELLIKGVYQVNPTKTRTNLPTHRHPQDEIPYCGKIFNLTTRQVRTLYKLPPNYEIRHKFKLWNFNNQISDDNPARFLQKAMDFPFICNSFTKFEFNTVFNDQRTVFANFYDAMICVAYKFDAAMMALRTSFLVNDFGFIWLVLSSTVRAYASRAFKKIVTYKGGKYRKVTFQCLKSIAWRAFLAVLKRRTEIYKGLIDRIKSREKLTMKFHDGEVDASYFCKLPEKFRFVKINRKASI | soluble |
| MHAIDFKEIQEKLSDGFRPWQRSFQFWARATDIYTGYKVFQLRMNFVKDVNKHEEMWERQHELAAHKVYSMCSDLGGFFLKIAQILGKPDLAPAAWVRKLVTLCDQAPATPFDAVRVVLEKELGKSIEQVFETFDEKPLGSASIAQVQHPGVEKLMMVDIRNLQIFALYMQKTDIKFDLFSMTKEIEKQIGYEFDFKREANAMEKIRRFLYDNNRKSPVLVPRVFPNLVTRKVLVMEFMNGIPILSLGDEMAKRGINPHGKMAEAAKFNILHSLSQAYGQMILKSGFFHADPHPGNILIGKGSEASHLLELGIATVAKCKNEQQELLQLAKTMFDTEMPPGTTTLQPFSEDSSIKKISVEAFPEELFSVLRTVVLLRGLSVGIGINYSCAQHWRAMAEEALHASGRLSTG | soluble |
| KKPEGKPDQKFDQKQELGRVIHLSNLPHSGYSDSAVLKLAEPYGKIKNYILMRMKSQAFIEMETREDAMAMVDHCLKKALWFQGRCVKVDLSEKYKKLV | soluble |
| MHIRLTLPFYIYPFHFFRGSKMVKIPKSHPRYWSLLYREKIIRGMEEGITAKAGLIAHGRGEAFDYLIGERTIPPAEEAMKVAVAKLLLANHPVISVNGNVAALVPRETVELAKVTRAKLEVNLFYRTEERVKKIAEVLKKTGAKEVLGLNPTKRIPGLESERGKVEEDGIWKADVVLVPLEDGDRTEALVRMGKFVITVDLNPLSRSARMANVTIVDNIIRAYPRMIELAKEMRDYSREELEEIVNNYDNNKILSEVLLHIRRRLEELAKEGLEHHHHHH | not soluble |
| MKQSKEEFIKSEGADFPGKTYVDCVLQHVFDFQRNYLLKDMFQVHKAHIVMLTEENLMKKEEAKFILHALKKVEEIPEEQLLYTEQHEDLFFLVEHLISQEAKSDFVSNMHIGRSRNDMGVTMYRMSLRRYVLRLMEHHLLLQESILQLAADHKETIMPAYTHTQPAQPTTFGHYTLAIYDTMQRDLERMKKTYKLLNQSPMGAAALSTTSFPIKRERVADLLGFTNVIENSYDAVAGADYLLEVSSLLMIMMTNTSRWIHDFLLLATKEYDGIAVARPYVQISSIMPQKRNPVSIEHARAITSSAPGEAFTVFQMIHNTPFGEIVDTEDDLQPYLYKGIEKAIRVFCILNAVIRTMKVEEDTLKRRSYKHAITITDFADVLTKNYGIPFRHAHHAASVIANMSLEQKKELHELCFKDVNIYLQEKFKIQLLEKEWEEIISPEAFIQKRNVYGGPSKKEMERMINNRKELFRKEEEVFEEEKQRILQAENDLNMLASNIIES | not soluble |
| MSLKNGKIANIGLINYVDLGKIIIKAKEEGKTAVDFKAIEDIMPWDEFVSSINETSEITRPKEYNSLDLIAEKYSTLRKYTPRLLKILEFKASKKGEPVLKAMETIKELNANTKRKVPKGAPLDFVTNQWEKYVYDQEGNIDKKYYELAVFTELKNAVRSGDISIVGSKQHKPFEEYLITDSEWEKYKAENTDFKVSLDAEEYLKARLDLLNNKLKYVSDNIKKLKGVSIEDNKFVLSRLEKAVPDEAKELATKLYSLIPRVNLSDIIIDISKFTAFDNNLIHASTNKEPKDNERSCITASLMALGTNIGLKKMEQAVKGISYKQMSNVVNWRMSDDNMEKAMAAITNYHHRQPYAVHWGDGSTSSSDGVRVKSAVEALNASYNPHYGLEKGVTMYSAVSDQYSRFGVGIINTNSRDAIHIIDILLNHRTELEIEEHYTDTAGYTDQVFGLTHLLGFRFAPRLRDISDCKLYCIEGKEDFRNIQSVIKGKINTKIIKENYDDILKPVSSIKEGKVSGSLIMGKLGSYSRQNSLAKALTELGKIEKTIFILDYLSDEDFRRKIQIGLNKGEAMNALARAIFFGKYGMFHEKDIQGQLQRATALSIIINSITLWNTMYLPKAVEKLKEKEGVDESLLRHVSPLGWEHINFIGQYNLDDSSDYNLIDNMRPLREILQEGHHHHHH | not soluble |
| MGSDKIHHHHHHVTITNPLPIDRNGEMVEISMAEITGKLQLPDTAQVIVLDENGLEVPYQITYDDMLIFPASVKGDASAVYTIAEGTPQPVDVVACGRQYPERLDDVAWENDRAAYRAYGPALQEKGERAFGYDIWTKSVSEPVVEDRYDGDLNRGISYHVDHGNGMDCYAVGPTLGGGTAALFPDSTIVYPYCYKDCEILDNGPLRFTAKLVYNPLVVKGDSSVIETRIISLDKGSQLNKTVVSFDNLQEITPVVTGIVLHKQNPMGYSFDADAGYIAYADSTENAANNNGVIYIGAVFPATVKGAFAQVFSEKERKERGDALGHVLAVNDYEPGAEYIYYWGSGWSKYGFEADTDWNKYLEEYARKIRNPLAVAIK | not soluble |
| MGSDKIHHHHHHMEKQKEVQKEYEEYQYMLDTETWKKELSQFKLSSSEKISKNPKVSIIIANYNNAPYLKKMMDSLVQQTIGIEQLQVMFIDDCSTDHSLKVIEPYLERYPNIEIYQLLENTGGAHGPRNVGIVNARGEYSVFLDADDWYDLNALKYLSDLLDDSHDDFAVSGLIQSTDGHLMLKSKPYYVDGSFKNRSIQELPAEFYGWLGPQAIMLRTSLIHNNNLHFVNQRVADDVLFFYEAMRFSKTITQGERLTTYLNRDADNESLSKSINRTFMLSWLRALSYINQQFPDDLSKERMLARRLEWLIYDFCIRRNTGYPFSKRRLQDFKVQMDQYLGELNFDPSPYFRSDVRQIIWTFLQTNDIDGLYWFIQCQSIRWVLVNRFGYVSKTERSYYYPRLLKRFPAVRMNAYAEATQREGNTLSLNVYTHQKITGFEIKELKNPFETRQRLAFKKISETSYQVELPEKFSNKESRFTIVFDNYLEIGVKDFSKFFA | not soluble |
| SMYKVRDISLAEWGRRELELAENEMPGLMELRREYGPSKPLKGAKIAGCLHMTMQTAVLIETLVELGAEVRWASCNIFSTQDHAAAAIAKRGIPVFAWKGETEEEYMWCMKQTLKGFSGDGYPNMLLDDGGDLTNYVLDECKELDGKIYGVSEETTTGVKNLYKRLQRGKLTIPAMNVNDSVTKSKFDNLYGCRESLVDGIKRATDVMIAGKTACVCGYGDVGKGCAAALRGFGARVVVTEVDPINALQAAMEGYQVLLVEDVVEEAHIFVTTTGNDDIITSEHFPRMRDDAIVCNIGHFDTEIQVAWLKANAKERVEVKPQVDRYTMANGRHIILLAEGRLVNLGCASGHPSFVMSNSFCNQVLAQIELWTNRDTGKYPRGAKAQVYFLPKKLDEKVAALHLGKLGAKLTKLTPKQAEYINCPVDGPFKPDHYRY | soluble |
| MSLTEILIVEDDDIIATLIERFLLQREYVVCAKVATGEDALYKAAEHLPDLVLMDINLAGKIDGITATKFITAIFHIPVIFLSGQDDETTLERATMAEPASFIIKPFNAKDLYSNIEIALHNDREGHHHHHH | not soluble |
| MAIRVIGTGFGRTGTDSMREALTILGFGPCHHMSEVMGNEDQKRLWRALAKGAAPDWNQLFAGYASCIDWPSAHYWRDLIEFYPKARVILTYRSPESWWASFEKTILAGISQSTDQESLGLALISRQVFDGRPHDRANAIAVYEANVRAVIATVPPSRLLVHNLGDGWKPLCLHLDVPVPDKPYPNRNTTKDFQSALAQN | soluble |
